Paper PMC10684826
Read-outs that look alike come from different tables or passages of the source.

Assays:
Experiment in all cases: EMSA
[1] = molecular target: T1, SisSSB deltaC29 (Saccharolobus islandicus REY15A, UniProt F0NBA9 1-119)
T1 sequence: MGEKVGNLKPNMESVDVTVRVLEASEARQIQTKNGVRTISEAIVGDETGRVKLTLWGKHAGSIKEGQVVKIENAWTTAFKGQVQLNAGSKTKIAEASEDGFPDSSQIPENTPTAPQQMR

[2] = molecular target: T2, SisSSB deltaC53 (Saccharolobus islandicus REY15A, UniProt F0NBA9 1-95)
T2 sequence: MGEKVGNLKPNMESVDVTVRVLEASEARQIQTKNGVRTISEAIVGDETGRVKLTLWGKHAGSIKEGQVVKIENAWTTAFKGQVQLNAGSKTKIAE

[3] = molecular target: T3, SacSSB (Sulfolobus acidocaldarius DSM 639, UniProt Q4JA43 1-146)
T3 sequence: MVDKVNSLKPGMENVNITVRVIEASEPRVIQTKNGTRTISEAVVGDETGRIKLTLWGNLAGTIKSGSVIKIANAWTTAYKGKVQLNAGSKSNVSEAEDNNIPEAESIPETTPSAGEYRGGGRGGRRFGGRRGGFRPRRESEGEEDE

[4] = molecular target: T4, AhoSSB (Acidianus hospitalis W1, UniProt F4B912 1-142)
T4 sequence: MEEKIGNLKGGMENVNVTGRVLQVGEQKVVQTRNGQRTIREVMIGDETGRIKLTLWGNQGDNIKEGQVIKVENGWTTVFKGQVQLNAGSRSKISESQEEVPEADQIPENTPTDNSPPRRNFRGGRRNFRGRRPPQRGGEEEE

[5] = molecular target: T5, SheSSB (Staphylothermus hellenicus DSM 12710, UniProt D7D8N7 1-151)
T5 sequence: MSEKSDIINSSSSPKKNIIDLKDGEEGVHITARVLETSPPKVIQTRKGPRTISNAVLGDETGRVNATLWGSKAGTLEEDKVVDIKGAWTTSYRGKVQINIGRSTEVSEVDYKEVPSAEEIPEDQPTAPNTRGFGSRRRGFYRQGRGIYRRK

[6] = molecular target: T3, SacSSB; remark: listed apart in the source
[7] = molecular target: T4, AhoSSB; remark: listed apart in the source
[8] = molecular target: EcoSSB (Escherichia coli, UniProt P0AGE0 1-178)
Sequence of EcoSSB (P0AGE0 whole entry): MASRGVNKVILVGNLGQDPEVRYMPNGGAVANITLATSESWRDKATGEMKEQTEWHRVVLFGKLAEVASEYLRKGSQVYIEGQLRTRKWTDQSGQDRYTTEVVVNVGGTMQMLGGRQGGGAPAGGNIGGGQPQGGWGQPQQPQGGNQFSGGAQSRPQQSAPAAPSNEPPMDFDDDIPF

[9] = molecular target: T5, SheSSB; remark: listed apart in the source

Measured: binding result

B1: Fam-ssRNA 40 nt (ssRNA)
RNA: AGGGUUCUUUGUGGCGGCGUCAUCUGUGCUUCCCUAUCCA
binds: [1] | [2] | [3] | [4] | [5]

B2: Fam-ssDNA 40 nt (ssDNA)
DNA: AGGGTTCTTTGTGGCGGCGTCATCTGTGCTTCCCTATCCA
not listed: [3] | [4] | [5]
binds: all other assays above
